This series deals with anti-ras optimised three-finger peptide (F1 +3 Asn) finger 1 helix position +3 S->N (synthetic). The series is described as follows: ELISA. The note with it: apparent Kd; phage-displayed; equal to wild-type Zif268 DBD; Zn.

For the sequence “GTGGTGGGCGCCGTCGGTGTGGGCAAG (double strand) [EJ (G12V) mutant H-ras site]”, the Kd was determined as 3 nM.

Values taken from patent US6746838.
